Laboratory results reported in the DeepSol protein solubility set.

Assay: soluble on expression in E. coli; label from the status in PepcDB or PDB records

**Q.** With “MSSPRHVFYISDRTGLTAENIGEALLNQFGNLSFKRHTHPFVDTPEKARAVVEKVNRSRQENGQRPIAFVSVVDDEIRRIIKGADAFQINFFETFLGLLEKELNTEATASGQGHHSIGNTKRYDARMEAVNFSLNHDDGVSDKNLQEADVILMGVSRSGKTPTCLYLALQYGIRAANYPLIPDDLESADLPRMVKPYRDKLFGLTIQPERLQAIRQERRPNSTYAKIDTCRSEVADAQSMFRRHGIPFANTTDKSVEELAVHILQACKLKRRF” as the sequence, how does the “soluble on expression in E. coli” value read?
**A.** Its value is “not soluble”.

**Q.** Which “soluble on expression in E. coli” value does the source give for “MLSMLSKISFTRPQAQELLRRLQAPRHLLQVVLGPRQVGKTTLALQVAQTCGLPYHYASADEPTLKEAPWLETQWTLARRLAQAGEALLVLDEAQKVLGWSETLKRLWDEDTLRGLPLKVVLLGSSPLLLQKGLSESLAGRFEVLHLPHWSFYEMERAFGYTLPEYLYFGGYPGAAPLREEPERFARYIKDALLETTLGRDILLHTRVEKPALLRRVLELGLLYSGQVLSYTKMLGQLQDAGNTVTLAYYLELLEGAGLLGALQKYAAEPIRRRASSPKLLALNTGLITAVLGLSPEEVWEDAALMGRLVETAVGAHLLAHAHQGGFEVYYWRERDQEVDFVLQKGKRLLALEVKSAPSKRTQGLEAFTRTFGAKGLLVGPEGVPLEAFLRDNPLNFL” here?
**A.** Its value is “soluble”.

**Q.** For “MGSDKIHHHHHHMSQQASLPDDDNWLLEDTDGDEAGRPSEVRKPWKVLIVDDEKDVHTATRIALRGISYKERPLELLSAYSGAEAFQMLQQHADIALIMLDVVMESEDAGLRLVHRIREELDNGVVRIVLRTGQPGQAPEQEVILNYDINDYKTKTELTTQKLFTTTIASLRAYENLVSLEKNRQGLAKILESASDLYQLHSLREFASGVLRQISALLDIGTDGILCVRNDNLVGRPELEILAVSGAYEYLAESGDLSNEPHLAAVFQQVFKEKRSIYQHPYDVLYISSRNRREFAVHFMPQWPLDSVERDLLDVFCQRISAAYDNLYLYNQLRSAQEATVVALADLAEFRDTDTGDHVLRVQKLTDAIAEEMVSHNHYPELMTHEFMDMVGMASILHDIGKVATPDHILLKPGKLDPEERAIMEQHATIGAQILAKSAQLVEGASYLSLGSEIAGGHHEHFDGNGYPGKLQGQAIPLSARIVAVVDVFDALLNKRPYKEPWSMEDTMKYINGRSGTQFDPHVVAALSRLVSEDRLPVQFGD”, which “soluble on expression in E. coli” value is on record?
**A.** Its value is “not soluble”.

**Q.** For “MGSDKIHHHHHHMPQTAFIWDLDGTLIDSYEAIMEALAVTYRTFGFDFQAEPIRRYIIKESVGKLLDILAKQHGLSSEELKTFFIQEQVKRDDKIKLMPFAKEALQWAKDRGIKQFMYTHKGASTGAVLAELGIVSYFTEILTSVSGFERKPHPQGIFYLLEKYHLDRDRTYYIGDRRLDVEVAENAGIKSINLAQPQSAANQKIDNLQVLTQLKDF”, which “soluble on expression in E. coli” value is on record?
**A.** The value was “not soluble”.

**Q.** For “SKTENEEDVKPPESCHAMQLLFKSLEASERAKVEEELKKTKENEFTQRNEHHALRDITHGKVNNYSFGTRQARKLFPHYHPPTWLGNLYLPLRGMPHTGPGCYAAATDWNGLAYNLSKVPTSTKGYAIGARTAVRFKPISKDVTPYPGMYQKVDTLSEKHKKSFAPFNILMPRFRSAAKGDSYPGPGTYNPEMKSVPKVTWPMKFGSPDWSQVPCLEKRTLKAELSADKDFRKHRSRVAYFSLYYQ”, which “soluble on expression in E. coli” value is on record?
**A.** Its value is “soluble”.

**Q.** For “MGSDKIHHHHHHMTAELLRLLENVLRVGVVTEIDVDEWRVRVSAGGLHTDWLRWDALRAGSFSVWIPPSVGEQVLLGCIGGNPETAVIIGSIYSAANPAPGSSSSELVIKAPDGATVRYDAAAGALEASGMKTARIVASVGVTLETPVVECTEHLVAKTFSFTEGGTMKGDVNHTGGAFKSNGVQADEHSHGNVLNGPGWSDGTR”, which “soluble on expression in E. coli” value is on record?
**A.** Its value is “not soluble”.

**Q.** With “MADSIASIGNRYIDNNDTDMHFLRTWAVRRCQHTDWDICERIRLGELKEARDRAAQMEKTMRWWSSCTADWRNRWSAVRDERNRAREEAETLRLNYDLLLEEKRFLAEQLYHVDSESDEPKLEISQKPEIDGTKRNAVVQTIHSISCDPPSILVKSYSAAQIEAVLREPSVDEPPVETTKSDINEELKAENEFLKDQANELNKCREKIETDGKTIQDLRLRIQSMERELMAAKNSKRASSS” as the sequence, how does the “soluble on expression in E. coli” value read?
**A.** Its value is “not soluble”.

**Q.** Which “soluble on expression in E. coli” value does the source give for “MSQRVSYYEIAPEGMKIMMDMEKYTKQSSINRTTRELIKIRVSQMNGCAFCIDMHTSDARKMGETEQRIYCLHAWNECDFYSPEEKAALELSEHITLIPSKRVPDELYHRVREHYDEEQYVDLVLIINQINSWNRISIAMGNRAASK” here?
**A.** The value was “soluble”.

**Q.** For “MNVRVLVVEDERDLADLITEALKKEMFTVDVCYDGEEGMYMALNEPFDVVILDIMLPVHDGWEILKSMRESGVNTPVLMLTALSDVEYRVKGLNMGADDYLPKPFDLRELIARVRALIRRKSESKSTKLVCGDLILDTATKKAYRGSKEIDLTKKEYQILEYLVMNKNRVVTKEELQEHLWSFDDEVFSDVLRSHIKNLRKKVDKGFKKKIIHTVRGIGYVARDE”, which “soluble on expression in E. coli” value is on record?
**A.** Its value is “soluble”.

**Q.** For “MRLLVQNVHKRFGKLEALKGVSLELGAGEILGLLGPNGAGKTTLIKVVLGLLLPDGGEVVLEEGGARRRPQGHEFGVLLEGSRNLYVNLSLLVNALYFGGIRGLPPKEVRPRFEAWLERFGLKDRLHAPLASLSRGMQQKAALALALALKPRFLLLDEPTLGLDPVSRREFEGILLELKKEGWGILLTSHDLEVVERVSDRVAFLHRGEVRRQGPTRVLLREWAGEGYRVRLAEPKAEALLQALGPGWSAEGPEVLFFLGPWEALREALGAFPVEVLEVSRGTPSLEALFLHLFGEARPSPSA”, which “soluble on expression in E. coli” value is on record?
**A.** The value was “soluble”.

**Q.** For “MVLDIDMFRTEKGGNPEIIRKSQQDRFKDPKLVDEVIELDEKWRKERFVADQLNRQKNAISKAIGEKMKKKEPQGTDDSVADDIVARLAELKIDELSQLTVVQLKKLRVLVDEKSVQTAAAVIANENARHEKLIQIGNLIHSSVVVSKDEANNKIERTFGDLSTKKKYSHVDLVVMVDGFDGERGTVVAGGRGYFLKGPLVFLEQAIIQLALQRLNVKGYVPLYTPFFMRKEVMQEVAQLSQFDDELYKVSSKGSEIAGDTSVDEKYLIATSEQPIAAYHRNEWIKETELPIKYAGVSTCFRQEVGSHGRDTRGIFRVHQFEKIEQFVLCSPNDNESWTLFDEMIGNAESYYQELQIPYQVVNIVSGELNNAAAKKFDLEAWFPGSGAYRELVSCSNCLDYQSRRLKVRYGQTKKLSGEVPFVHMLNATMCATTRVICAILENNQTEEGINVPTAIQQWMPENYRTFIPFVKPAPIDEDAKKATGKK”, which “soluble on expression in E. coli” value is on record?
**A.** Its value is “not soluble”.

**Q.** With “MSLALDGKSLSGFSHVHVGSLYNAEALEKSVEEMQVETSRRGYAFAVVRPRGDRNFDAHTVSIVFAIDEGPRTYIERINIRGNTRTRDYVIRREFDISEGDAYNRSLVDRAERRLKNLDFFKTVKITTEPGSSSDRVILDVDVEDKSTGDFSVSGGYSTTQGALAEVSVSERNLLGRGLYAKASVQYGQYARGYSLSFVEPYLLDYRVALGLDFYQREQLANQYISYNIKTLGFSPRLGFGLREDLTLQLRYSIFRQEIGLPTSLRNCNNNIGGPNYNPSPAFLNSIGQFNPNNPTLGCYSDGEASLPIRQELGGQTLTSMLGYTLTYNTLDNNKNPTDGLLIDFRQDFAGVGGDVKYLKTAIDAKYYQPLVSDIVGLVHLQGGILNNVGAYAGQNGIRMLDNFQMGPNLVRGFAPNGIGPRDINFLSTMDALGGTQYWGASVELQMPFWFLPKEVGLKGAVYADAGSLWGYKGPTSNLATNEFNAPGCMPSTSRSNPGTCAGLQFDDTNVVRTSVGVGLIWQSPFGPLRFDYAVPITKGKYDRVQEFRFGGGTTEGHHHHHH” as the sequence, how does the “soluble on expression in E. coli” value read?
**A.** The value was “not soluble”.

**Q.** For “FPPRIVNPVVTPVTDTLTDTTDTKEYAVQTAIPDQRKVARPRADALRNRERIVLAAREMFVEHGPDVPLDDVARRAGVGNATVYRNFPDRDALVREVVCSVMDRTARAAELALAETGDAFEALERFVHASADERISALCPMVASTFDQHHPDLEAARGRVERLVAEVMDRAKAAGQLRGDVGVGDLMIAAAQLSRPPAGTGCVNADRFVHRHLQLFLDGLRAPARSVLPGAAVTLEDLRRPCDQ”, which “soluble on expression in E. coli” value is on record?
**A.** Its value is “not soluble”.

**Q.** For “MGSDKIHHHHHHMWAYESVFYQIYPLGFCGAPFENDGVLEHRILKVNDWIPHIKKLGADAIYFSPVFESDTHGYNTRDYTKIDTRLGTNEDFAQVCDNLHKDGIKVVLDGVFNHVGRGFWAFQDVLKNRESSPYVNWFGRIAFDGNSNYNDGLWYEGWEGNYDLVKLNLRNEDVIQHIFSAIKGWVDEFDIDGLRLDVAYCLDHDFLRRLREFCDSLKPDFFLVGETLHGDYNQIMNDAMLHSVTNYECYKGLYSSFNSMNMFEINHSLLRQFGPEQWTLYKGKHLLSFVDNHDVTRVASILTNEKHLPLIYALAFGMPGIPCVYYGSEWGEKAKKEDGDPALRACFEAPQCNELTEWISKLAEAKKQSKALCYGNFYSVVLTNGQCVFGRECDGEKVFVCINAADQPFFAGFDMGKGDATDLITGEQVTLNGGLELPPYSAYFLR”, which “soluble on expression in E. coli” value is on record?
**A.** Its value is “not soluble”.

**Q.** With “QYRIIDFKRDKDGIPGRVATIEYDPNRSANIALINYADGEKRYIIAPKNLKVGMEIMSGPDADIKIGNALPLENIPVGTLVHNIELKPGRGGQLVRAAGTSAQVLGKEGKYVIVRLASGEVRMILGKCRATVGEVGN” as the sequence, how does the “soluble on expression in E. coli” value read?
**A.** The value was “soluble”.

**Q.** With “MTSRGDSREKILHTASRLSQLQGYHATGLNQIVKESGAPKGSLYHFFPNGKEELAIEAVTYTGKIVEHLIQQSMDESSDPVEAIQLFIKKTASQFDNTESIKGIPVGLLASETALISEPLRTVCMKVFKSWEAVFARKLMENGFAEEEANQLGTLINSMIEGGIMLSLTNKDKTPLLLIAEQIPVLVRKKG” as the sequence, how does the “soluble on expression in E. coli” value read?
**A.** The value was “soluble”.

**Q.** Which “soluble on expression in E. coli” value does the source give for “GPPQMSATNEDLKTNFHSLHNQMRQMPMSHFREALDAPDYSGMRQSGFFAMSQGFQLESHGGDVFMHAHRENPQCKGDFAGDKFHISVQREQVPQAFQALSGLLFSVDSPIDKWKVTDMERVDQQSRVAVGAQFTLYVKPDQENSQYSASSLHNTRQFIECLESRLSESGLMPGQYPESDVHPENWKYVSYRNELRSGRDGGEMQSQALREEPFYRLMAE” here?
**A.** Its value is “soluble”.

**Q.** With “MNQYSSFSPSSPSSSSRPSGGGGQSSHQTTPKSSGNPRQQQAQPRHRQRKAQSSSPASLAAFASSSVCSSPSARNVPLPPVEWLNQLQVPGQLENSSRPSSSISMTSSASSSTSSLSSSDAPMITMTPRRAAQKEMKPKTDVLGVRVCPLQLIAAIASA” as the sequence, how does the “soluble on expression in E. coli” value read?
**A.** Its value is “not soluble”.

**Q.** With “MANLKRYNDGLFKLDLWIRRLLTIGESNELYTALCDGVCDIVGAGTAVFTTIDMQAGTLTYMAASGGWNAMVKGLAVPMKSGNLCASVAACGTPLRIDQISSRTDSCELLQVMDMDAAVLVPVLEEGRVTACLSAFRVGNPFDQIDEQLLQQYAHTASMVLRTVRLMVDLR” as the sequence, how does the “soluble on expression in E. coli” value read?
**A.** Its value is “not soluble”.

**Q.** Which “soluble on expression in E. coli” value does the source give for “MSSTLAKIAEIEAEMARTQKNKATAHHLGLLKARLAKLRRELITPKGGGGGGPGEGFDVAKTGDARIGFVGFPSVGKSTLLSNLAGVYSEVAAYEFTTLTTVPGVIRYKGAKIQLLDLPGIIEGAKDGKGRGRQVIAVARTCNLILIVLDVLKPLGHKKIIENELEGFGIRLNSKPPNIGFKKKDKGGINLTATCPQSELDAETVKSILAEYKIHNADVTLRSDATADDLIDVVEGNRVYIPCIYVLNKIDQISIEELDIIYKVPHCVPISAHHRWNFDDLLEKIWDYLKLVRIYTKPKGQLPDYTSPVVLPYSRTTVEDFCMKIHKNLIKEFKYALVWGLSVKHNPQKVGKDHTLEDEDVIQIVKK” here?
**A.** The value was “soluble”.

**Q.** With “MSQLRADKKGTHRVAFDRNKKKLLKAATVCGICGKPVDKSLKYPHPLSAAIDHIVPIAKGGHPSALENLQLTHWQCNRQKSDKLFANQASNEPKTIGNRNLPQSRDWSSFAFKKLEHHHHHH” as the sequence, how does the “soluble on expression in E. coli” value read?
**A.** Its value is “soluble”.
